According to paper PMC9628495:

What was measured:
[1] = target: human FcγRIIIa-158V-GST (dimeric GST-fused form) (human)
[2] = target: human complement C1q (human) (UniProt P02745)
[3] = target: hFcRn-SA-Alexa 488, P55899;P61769; test: flow cytometry (FACS) of E. coli spheroplasts displaying Fc; conditions: 40 nM hFcRn-SA-Alexa 488, read off a plot
[4] = target: PFc29 (Q311R/M428L) Fc variant displayed on the E. coli inner membrane (human); test: flow cytometry on cells; single clones rescued from the fourth round of screening, Fc displayed on E. coli spheroplasts, fluorescent hFcRn probe; screening at pH 5.8, pH of the clone analysis not stated; mean fluorescence intensity
[5] = target: PFc41 (L309G/M428L) Fc variant displayed on the E. coli inner membrane (human); test: as above
[6] = target: EFc41 (P228L/L234F/E269D/Q342L/E388D/T394A/M428L) Fc variant displayed on the E. coli inner membrane (human); test: as above
[7] = target: trastuzumab-LS (M428L/N434S) (human); test: SPR; Biacore T200; HER2 amine-coupled on a CM5 chip (~3000 RU), trastuzumab-Fc variants captured on it (~300 RU), hFcRn injected at 1000, 500, 250, 125 and 62.5 nM in PBS (printed '10x') with 0.05% Tween 20, pH 6.0, 50 μl/min; 1:1 binding model; 'Steady state' for trastuzumab with wild-type Fc
[8] = target: trastuzumab (wild-type Fc, prepared in-house) (human); test: as above
[9] = target: trastuzumab-YTE (M252Y/S254T/T256E) (human); test: as above
[10] = target: trastuzumab-PFc41 (L309G/M428L) (human); test: as above
[11] = target: trastuzumab-PFc29 (Q311R/M428L) (human); test: as above
[12] = pH 5.8 in the image key (pH 6.0 in the legend), parent: est. 300

Chain of human FcγRIIIa-158V-GST (dimeric GST-fused form) (human) (P08637 17-208): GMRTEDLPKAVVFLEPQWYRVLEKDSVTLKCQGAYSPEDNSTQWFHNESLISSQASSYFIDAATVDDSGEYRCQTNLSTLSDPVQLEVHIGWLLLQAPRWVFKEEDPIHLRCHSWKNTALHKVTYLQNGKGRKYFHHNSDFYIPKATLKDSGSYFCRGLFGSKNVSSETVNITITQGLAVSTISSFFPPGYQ
Chain of UniProt P02745 (P02745 23-245, chain 1 of 3): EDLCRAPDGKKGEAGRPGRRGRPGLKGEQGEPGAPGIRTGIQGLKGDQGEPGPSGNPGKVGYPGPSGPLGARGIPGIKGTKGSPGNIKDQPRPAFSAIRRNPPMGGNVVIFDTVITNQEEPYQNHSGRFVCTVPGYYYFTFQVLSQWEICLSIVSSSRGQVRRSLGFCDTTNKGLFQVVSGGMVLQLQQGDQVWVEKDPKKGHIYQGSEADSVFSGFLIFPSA
Chain of UniProt P02745 (P02746 28-253, chain 2 of 3, further chain): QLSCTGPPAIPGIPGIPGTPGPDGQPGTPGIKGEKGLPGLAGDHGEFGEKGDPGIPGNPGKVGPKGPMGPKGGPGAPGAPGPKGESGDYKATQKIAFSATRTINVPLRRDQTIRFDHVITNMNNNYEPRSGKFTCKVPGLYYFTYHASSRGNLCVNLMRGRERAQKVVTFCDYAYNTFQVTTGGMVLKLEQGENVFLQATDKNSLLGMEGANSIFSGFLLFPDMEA
Chain of UniProt P02745 (P02747 29-245, chain 3 of 3, further chain): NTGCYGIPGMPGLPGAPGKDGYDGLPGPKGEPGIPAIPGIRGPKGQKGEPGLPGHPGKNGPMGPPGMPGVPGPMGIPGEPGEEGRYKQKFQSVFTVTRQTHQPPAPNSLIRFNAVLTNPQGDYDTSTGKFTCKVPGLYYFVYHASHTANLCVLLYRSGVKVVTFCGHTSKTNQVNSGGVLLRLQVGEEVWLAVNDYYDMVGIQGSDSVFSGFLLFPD

**Q.** For trastuzumab-LS (M428L/N434S) (antibody), which EC50 of ADCC (ADCC Reporter Bioassay; SKBR-3 target cells, FcγRIIIa-158V-expressing engineered Jurkat effector cells; luminescence) [1] is on record?
**A.** 0.061 µg/mL

**Q.** Which EC50 of CDC (lysis of Raji cells with normal human complement) [2] does the source give for “rituximab (wild-type Fc, prepared in-house) (antibody)” here?
**A.** 0.33 µg/mL

**Q.** For “wild-type Fc displayed on the E. coli inner membrane Q311R; M428L”, which response ([3]; pH 7.4, parent: est. 30) is on record?
**A.** 80 MFI

**Q.** With “trastuzumab-PFc29 (Q311R/M428L) (antibody)” as the substance, how does the EC50 of ADCC (ADCC Reporter Bioassay; SKBR-3 target cells, FcγRIIIa-158V-expressing engineered Jurkat effector cells; luminescence) [1] read?
**A.** 0.051 µg/mL

**Q.** Which results are given for “Alexa 488-labelled hFcRn probe (FcRn-GST or FcRn-streptavidin) (from UniProt P55899 24-297; P61769 21-119) (complex)”?
**A.** MFI [4]: 1180; MFI [5]: 1910; MFI [6]: 862

**Q.** How did the response [3, 12] turn out when “wild-type Fc displayed on the E. coli inner membrane M428L” was run?
**A.** 430 MFI

**Q.** And the response ([3]; pH 7.4, parent: est. 30)?
**A.** 70 MFI

**Q.** For “trastuzumab (wild-type Fc, prepared in-house) (antibody)”, which EC50 of ADCC (ADCC Reporter Bioassay; SKBR-3 target cells, FcγRIIIa-158V-expressing engineered Jurkat effector cells; luminescence) [1] is on record?
**A.** 0.12 µg/mL

**Q.** Which results are given for “wild-type Fc displayed on the E. coli inner membrane Q311R”?
**A.** response [3, 12]: 280 MFI; response ([3]; pH 7.4, parent: est. 30): 40 MFI

**Q.** With “monomeric human FcRn (human FcRn α chain-His complexed with human β2-microglobulin) (from UniProt P55899 24-297; P61769 21-119)” as the substance, how does the Kd [7] read?
**A.** 81.6 nM

**Q.** What about the Kd [8] of the same substance?
**A.** 647 nM

**Q.** What about the Kd [9] of the same substance?
**A.** 147 nM

**Q.** And the Kd [10]?
**A.** 198 nM

**Q.** And the Kd [11]?
**A.** 149 nM
